# Source: patent publication US20120100160A1
# Target: murine LFA-1 (on TK1/TK-1 cells or primary murine splenocytes) (murine) (UniProt P24063)
# Test: cell-based or functional assay
# Chain of UniProt P24063 (P24063 24-1162, chain 1 of 2): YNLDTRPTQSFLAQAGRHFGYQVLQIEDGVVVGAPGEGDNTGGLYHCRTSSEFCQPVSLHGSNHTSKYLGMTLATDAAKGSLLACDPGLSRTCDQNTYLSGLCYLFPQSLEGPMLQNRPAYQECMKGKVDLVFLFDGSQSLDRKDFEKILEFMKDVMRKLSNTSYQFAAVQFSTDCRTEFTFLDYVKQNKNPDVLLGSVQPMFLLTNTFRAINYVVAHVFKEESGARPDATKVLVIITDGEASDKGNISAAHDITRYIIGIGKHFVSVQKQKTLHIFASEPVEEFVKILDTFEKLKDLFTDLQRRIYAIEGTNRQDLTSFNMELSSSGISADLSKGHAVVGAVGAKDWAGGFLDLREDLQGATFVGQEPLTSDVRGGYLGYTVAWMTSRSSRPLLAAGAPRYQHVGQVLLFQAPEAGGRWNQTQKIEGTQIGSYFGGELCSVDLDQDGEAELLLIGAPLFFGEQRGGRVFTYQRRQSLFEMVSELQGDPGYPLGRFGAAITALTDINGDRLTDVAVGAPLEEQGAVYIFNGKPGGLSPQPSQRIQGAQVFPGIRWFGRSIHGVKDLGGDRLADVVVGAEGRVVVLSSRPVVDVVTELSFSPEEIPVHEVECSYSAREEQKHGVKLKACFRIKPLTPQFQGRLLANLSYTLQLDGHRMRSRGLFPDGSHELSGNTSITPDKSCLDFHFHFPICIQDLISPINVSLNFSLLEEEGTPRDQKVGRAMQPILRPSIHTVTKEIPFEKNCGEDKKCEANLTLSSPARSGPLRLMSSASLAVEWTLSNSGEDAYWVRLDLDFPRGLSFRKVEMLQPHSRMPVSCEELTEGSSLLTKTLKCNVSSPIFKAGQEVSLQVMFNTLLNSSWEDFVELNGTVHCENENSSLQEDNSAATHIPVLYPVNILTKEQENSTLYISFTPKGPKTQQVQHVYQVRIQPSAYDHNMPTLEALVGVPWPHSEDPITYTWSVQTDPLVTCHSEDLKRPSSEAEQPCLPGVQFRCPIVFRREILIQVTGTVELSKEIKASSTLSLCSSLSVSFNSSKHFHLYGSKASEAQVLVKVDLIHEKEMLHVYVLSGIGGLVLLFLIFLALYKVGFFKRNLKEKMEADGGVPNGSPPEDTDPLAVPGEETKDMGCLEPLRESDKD
# Chain of UniProt P24063 (P11835 24-771, chain 2 of 2, further chain): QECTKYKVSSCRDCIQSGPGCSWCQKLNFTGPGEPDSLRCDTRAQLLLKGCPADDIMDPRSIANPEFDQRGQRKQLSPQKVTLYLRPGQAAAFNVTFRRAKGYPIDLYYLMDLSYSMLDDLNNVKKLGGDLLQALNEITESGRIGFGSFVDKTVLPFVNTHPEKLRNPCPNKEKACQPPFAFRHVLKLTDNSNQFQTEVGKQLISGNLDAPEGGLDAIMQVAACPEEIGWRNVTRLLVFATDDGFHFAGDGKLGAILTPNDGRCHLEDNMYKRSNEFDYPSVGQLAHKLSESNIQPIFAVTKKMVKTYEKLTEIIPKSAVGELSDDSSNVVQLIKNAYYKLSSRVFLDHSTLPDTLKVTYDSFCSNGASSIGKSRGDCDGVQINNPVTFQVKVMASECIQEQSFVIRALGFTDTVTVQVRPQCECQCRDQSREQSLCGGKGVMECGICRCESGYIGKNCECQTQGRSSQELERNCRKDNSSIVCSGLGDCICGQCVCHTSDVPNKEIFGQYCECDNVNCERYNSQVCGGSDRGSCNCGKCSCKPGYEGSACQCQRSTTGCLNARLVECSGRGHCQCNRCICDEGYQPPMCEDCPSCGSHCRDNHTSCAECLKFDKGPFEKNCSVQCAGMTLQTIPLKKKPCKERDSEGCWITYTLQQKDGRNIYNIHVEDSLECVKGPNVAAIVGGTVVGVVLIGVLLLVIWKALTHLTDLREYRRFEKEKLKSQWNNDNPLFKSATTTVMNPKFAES
substance,measurement,value
multimerized ICAM-1-protamine fusion protein (80 pmoles fusion protein with 10 pmoles anti-Fc Fab′2),CD45 knockdown in TK-1 cells: subpopulation of CD45-low cells at the 6:1 ratio of siRNA to fusion protein,14%
